Reference: patent WO2017204277A1

Molecular target: mature h(m)TGF-beta3 (mature form of human (mouse) TGF-beta3) (human (mouse); the filing says the mature forms are identical)
Experiment: cell-based or functional assay

For GC1008-hIgG1 (antibody), the suppression of TGF-beta3 physiological activity (Smad signal), SEAP activity of HEK-Blue TGFb cells, OD620nm was 100%.
